Experimental data from article PMC7039645 (mAbs, 2020).
Where a chain is given by its changes, count along the chain named.

B1: hu4D5-g3.1 Fab (Fab, V domains shown)
VH: EVQLVESGGGLVQPGGSLRLSCAASGFNIKDTYIHWVRQAPGKGLEWVARIYPTNGYTRYADSVKGRFTISADTSKNTAYLQMNSLRAEDTAVYYCARGHYSSGHPFDYWGQGTLVTVSS
VL: not shown
B2: hu4D5-g2.1 Fab (Fab, V domains shown)
VH: B1 VH with G99S, Y101K, S102N, S103V, G104M, H105G, P106L, F107V
VL: not shown
B3: hu4D5-g3.2 Fab (Fab, V domains shown)
VH: B1 VH with H100I, Y101G, S102N, S103G, G104A, H105E, P106G, F107M
VL: not shown
B4: hu4D5-g2.2 Fab (Fab, V domains shown)
VH: B1 VH with G99S, Y101A, S102L, S103V, G104Y, H105G, P106L, F107I
VL: not shown
B5: hu2C4-g3.1 IgG1 (antibody, V domains shown)
VH: EVQLVESGGGLVQPGGSLRLSCAASGFTFTDYTMDWVRQAPGKGLEWVADVNPNSGGSIYNQRFKGRFTLSVDRSKNTLYLQMNSLRAEDTAVYYCARLMSYGYFDYWGQGTLVTVSS
VL: DIQMTQSPSSLSASVGDRVTITCKASQDVSIGVAWYQQKPGKAPKLLIYSASYRYTGVPSRFSGSGSGTDFTLTISSLQPEDFATYYCQQYYIYPYTFGQGTKVEIK
B6: hu2C4-g3.2 IgG1 (antibody, V domains shown)
VH: B5 VH with M100L, S101A, F105L
VL: B5 VL
B7: hu2C4-g1.2 IgG1 (antibody, V domains shown)
VH: EVQLVESGGGLVQPGGSLRLSCAASGFTFTDYTMDWVRQAPGKGLEWVADVNPNSGGSIYNQRFKGRFTLSVDRSKNTLYLQMNSLRAEDTAVYYCARAITNEVLLDYWGQGTLVTVSS
VL: B5 VL
B8: hu2C4-g2.2 IgG1 (antibody, V domains shown)
VH: B7 VH with A99S, I100S, T101R, N102P, E103P, V104W, L105F, L106F
VL: B5 VL
B9: hu2C4-g1.1 IgG1 (antibody, V domains shown)
VH: B7 VH with T101A, N102G, E103G
VL: B5 VL
B10: hu2C4-g2.1 IgG1 (antibody, V domains shown)
VH: B7 VH with A99S, I100S, N102P, E103P, V104F, L105F, L106M
VL: B5 VL
B11: F9.13.7 (antibody, V domains shown)
VH: QVQLQQPGAELVKPGASVKLSCKASGYTFTSYWMHWVKQGPGQGLEWIGEIDPSDSYPNYNEKFKGKATLTVDKSSSTAYMQLSSLTSEDSAVYYCASLYYYGTSYGVLDYWGQGTSVTVSS
VL: DIQMTQTTSSLSASLGDRVTISCRASQDISNYLNWYQKKPDGTVKLLIYYTSRLHSGVPSRFSGSGSGTDYSLTIRNLEQEDIATYFCQQGYTLPYTFGGGTKLEIK

target: T1, human epidermal growth factor receptor 2 (Homo sapiens, UniProt P04626); test: SPR

Row | Binder | Kd [nM] | koff [s⁻¹] | kon [M⁻¹ s⁻¹]
1 | B1 | 0.39 | 0.00032 | 960000
2 | B2 | 0.27 | 0.00035 | 1.6e+06
3 | B3 | 1.8 | 0.0011 | 660000
4 | B4 | 0.33 | 0.00043 | 1.8e+06

target: T1, human epidermal growth factor receptor 2; test: SPR; remark: another data set of the same source

Row | Binder | Kd [nM] | koff [s⁻¹] | kon [M⁻¹ s⁻¹]
5 | B5 | 6.4 | 0.0004 | 63000
6 | B6 | 9.9 | 0.00057 | 58000
7 | B7 | 28 | 0.0014 | 49000
8 | B8 | 23 | 0.0015 | 65000
9 | B9 | 25 | 0.0012 | 48000
10 | B10 | 25 | 0.00096 | 39000

target: hen egg-white lysozyme (chicken (hen egg-white), UniProt P00698); test: SPR

Row | Binder | binding result
11 | B11 | binds
